Assay results from patent US20130136743A1 (LABORATOIRE FRANCAIS DU FRACTIONNEMENT ET DES …, published 2013).
Where a chain is given by its changes, count along the chain named. Names may count otherwise.

B1: 4C_35 (mutated huLFB112 phage-scFv clone) (scFv, part only; not given: scFv linker and phage partner, V domains shown, not shown: another chain or arm of the molecule; large carriers; small tags and cut ends)
VH: QVQLVQSGAEVKKPGASVKVSCKASGYTFTSYHIHWVRQAPGQRPEWMGWIYPGDDSTKYSQKFQGRVTITRDTSASTAYMELSSLRSEDTAVYYCTRGDRFAYWGQGTLVTVSS
VL: DIQMTQSPSTLSASVGDRVTITCRASSSVRYIAWYQQKPGKAPKLLIYSTSSLKSGVPSRFSGSGSGTEFTLTISSLQPDDFATYYCLQWSSYPWTFGGGTKVEIK
B2: 5B_81 (mutated huLFB112 phage-scFv clone) (scFv, part only; not given: scFv linker and phage partner, V domains shown, not shown: another chain or arm of the molecule; large carriers; small tags and cut ends)
VH: B1 VH
VL: B1 VL with K54E
B3: 3C_23 (mutated huLFB112 phage-scFv clone) (scFv, part only; not given: scFv linker and phage partner, V domains shown, not shown: another chain or arm of the molecule; large carriers; small tags and cut ends)
VH: B1 VH with Q3R, P45L
VL: B1 VL with I47T, S49P, K54E
B4: 4F_196 (mutated huLFB112 phage-scFv clone) (scFv, part only; not given: scFv linker and phage partner, V domains shown, not shown: another chain or arm of the molecule; large carriers; small tags and cut ends)
VH: B1 VH with Q3E, P45L, Q62R, E89D
VL: B1 VL with K54E
B5: mutated humanized 12G4 antibody 3C-23 produced in CHO (antibody, human IgG1, kappa, V domains shown)
VH: B1 VH with Q3R, P45L
VL: DIQMTQSPSTLSASVGDRVTITCRASSSVRYIAWYQQKPGKAPKLLTYPTSSLESGVPSRFSGSGSGTEFTLTISSLQPDDFATYYCLQWSSYPWTFGGGTKVEIKR
notes: also called 3C_23 CHO
B6: mutated humanized 12G4 antibody 6B-78 produced in CHO (antibody, human IgG1, kappa, V domains shown)
VH: B1 VH with P45L
VL: B5 VL with T47I, P49S, E54K
notes: also called 6B_78 CHO
B7: unmutated humanized 12G4 monoclonal antibody (antibody, human IgG1, kappa, V domains shown)
VH: B1 VH with P45L
VL: B5 VL with T47I, P49S
notes: Variable regions without leader joined to the constant regions; also called huLFB112; 632 07 107 Anti AMHRII hum 1st
B8: mutated humanized 12G4 antibody 3C-23K produced in CHO (antibody, human IgG1, kappa, V domains shown)
VH: B1 VH with Q3R, P45L
VL: B5 VL with E54K
notes: also called 3C_23K CHO; 3C-23K-CHO
B9: 3D_74 (mutated huLFB112 phage-scFv clone) (scFv, V domains shown)
VH: B1 VH with P45L
VL: B1 VL with S28P, K54E
notes: scFv on M13 phage, tested as culture supernatant; not shown: The 15-residue scFv peptide linker (positions 116-130 of the scFv numbering) and the M13 phage display partner
B10: 4D_91 (mutated huLFB112 phage-scFv clone) (scFv, V domains shown)
VH: B1 VH with Q1E, V11A, P45L
VL: B1 VL with K54E
notes: scFv on M13 phage, tested as culture supernatant; Q1E: TAG codon suppressed, translated to E in E. coli XL1-blue; not shown: The 15-residue scFv peptide linker (positions 116-130 of the scFv numbering) and the M13 phage display partner
B11: 4E_153 (mutated huLFB112 phage-scFv clone) (scFv, V domains shown)
VH: B1 VH with P45L, D56N, I70N, F102S
VL: B1 VL with K54E
notes: as for B9
B12: 4F_169 (mutated huLFB112 phage-scFv clone) (scFv, V domains shown)
VH: B1 VH with Q6E, P45L, T58A
VL: B1 VL with K54E
notes: scFv on M13 phage, tested as culture supernatant; Q6E: TAG codon suppressed, translated to E in E. coli XL1-blue; not shown: The 15-residue scFv peptide linker (positions 116-130 of the scFv numbering) and the M13 phage display partner
B13: 5A_28 (mutated huLFB112 phage-scFv clone) (scFv, V domains shown)
VH: B1 VH with P45L
VL: B1 VL with Y48H, S49P, K54E
notes: scFv on M13 phage, tested as culture supernatant; not shown: The 15-residue scFv linker (positions 116-130 of the scFv numbering) and the M13 phage display partner
B14: 5A_66 (mutated huLFB112 phage-scFv clone) (scFv, V domains shown)
VH: B1 VH with P45L, V68M
VL: B1 VL with K54E, F82S
notes: as for B9
B15: 5B_18 (mutated huLFB112 phage-scFv clone) (scFv, V domains shown)
VH: B1 VH with Q3E, A9T, P45L, A103T
VL: B1 VL with K54E
notes: scFv on M13 phage, tested as culture supernatant; Q3E: TAG codon suppressed, translated to E in E. coli XL1-blue; not shown: The 15-residue scFv peptide linker (positions 116-130 of the scFv numbering) and the M13 phage display partner
B16: 6A_80 (mutated huLFB112 phage-scFv clone) (scFv, V domains shown)
VH: B1 VH with A24V, P45L, Q62E
VL: B1 VL with K54E
notes: scFv on M13 phage, tested as culture supernatant; Q62E: TAG codon suppressed, translated to E in E. coli XL1-blue; not shown: The 15-residue scFv linker (positions 116-130 of the scFv numbering) and the M13 phage display partner
B17: 6B_14 (mutated huLFB112 phage-scFv clone) (scFv, V domains shown)
VH: B1 VH with S31G, Q39E, P45L
VL: B1 VL with K54E
notes: scFv on M13 phage, tested as culture supernatant; Q39E: TAG codon suppressed, translated to E in E. coli XL1-blue; not shown: The 15-residue scFv peptide linker (positions 116-130 of the scFv numbering) and the M13 phage display partner
B18: 6B_76 (mutated huLFB112 phage-scFv clone) (scFv, V domains shown)
VH: B1 VH with A40V, P45L
VL: B1 VL with S49P, K54E
notes: as for B13
B19: 6B_87 (mutated huLFB112 phage-scFv clone) (scFv, V domains shown)
VH: B1 VH with Q1E, A24V, P45L
VL: B1 VL with K54E
notes: as for B10

Tests used:
[1] = target: T1, AMHR-II/Fc fusion protein (human, UniProt Q16671 18-149, limits assumed); assay: phage-scFv ELISA on AMHRII-Fc; mean of at least four values, standard deviation in parentheses
T1 construct: also called AMHR-II recombinant receptor expressed in the form of fusion protein with a region Fc; recombinant target; not shown: Fc region
Method: The secondary screening consists of analysing the clones selected at the end of the primary screening individually. For this, the 113 unique mutated clones were transferred to a culture plate (96 well-1.2 ml).
After production of the phage particles, the culture supernatants containing the phages-scFv were used for carrying out an ELISA binding assay. The binding of the mutated clones was evaluated at two dilutions (½ and ¼ of the supernatants containing the scFv-phages). The murine clones (mLFB112) and humanized clones (huLFB112) constructed under the scFv-phages format were used as references on each of the assay plates. Each of the mutated clones was tested at least twice.

[2] = target: T1, AMHR-II/Fc fusion protein; assay: SPR, BIAcore X100; AMHR-II/Fc immobilised on CM5 chip, antibody injected; 25 C
Method: (§1) The affinity of the antibodies for their antigen, AMHR-II, is determined by the SPR (Surface Plasmon Resonance) technique on BIACore X100 (BIACore, GE Healthcare). The AMHR-II recombinant receptor, expressed in the form of fusion protein with a region Fc, is immobilized by covalent coupling between its amine functions and the carboxyl groups of dextran activated in succinimide esters, present on the surface of the type CM5 sensor chip. The COOH groups of the sensor chip are activated for 7 minutes with EDC/NHS mixture (0.1 M of N-hydroxysuccinimide and 0.1 M of 3-(N,N-dimethylamino)propyl-N-ethylcarbodiimide) at a flow of 10 μl/min then the AMHR-II/Fc fusion protein, diluted to 5 μg/ml in 10 mM sodium acetate buffer, pH 4.0, is injected at […] on track 2 of the sensor chip so as to reach 300 RU. The ester groups that have not reacted with the amines of the fusion protein are deactivated by injection of a solution of ethanolamine-HCl 1M, pH 8.5 for 7 min at a flow of 10 μl:min. Track 1, serving as negative control, was activated and deactivated like track 2.
(§2) All the measurements are carried out at 25° C. The antibodies to be analysed are diluted in HBS-EP running buffer (BIACore, GE Healthcare) at concentrations from 6.25 to 3333 nM and injected on the sensor chip for 2 min at a flow of 30 μl/min. The dissociation step is monitored for 10 min and then the surface is regenerated by injection of 10 mM glycine buffer, pH 1.5 for 30 s at 10 μl/min.
(§3) The sensorgrams obtained are analysed using the 1:2 kinetic model of the BIAevaluation 3.1 software.

[3] = target: T1, AMHR-II/Fc fusion protein; assay: SPR, BIAcore X100; ratio against the chimeric 12G4
Method: as §1, §2, §3

[4] = target: T2, AMHRII receptor expressed on cells (cov434-AMHRII, Asc 1, META 2815) (human, UniProt Q16671 18-573); assay: cell-based or functional assay
T2 sequence (looked up): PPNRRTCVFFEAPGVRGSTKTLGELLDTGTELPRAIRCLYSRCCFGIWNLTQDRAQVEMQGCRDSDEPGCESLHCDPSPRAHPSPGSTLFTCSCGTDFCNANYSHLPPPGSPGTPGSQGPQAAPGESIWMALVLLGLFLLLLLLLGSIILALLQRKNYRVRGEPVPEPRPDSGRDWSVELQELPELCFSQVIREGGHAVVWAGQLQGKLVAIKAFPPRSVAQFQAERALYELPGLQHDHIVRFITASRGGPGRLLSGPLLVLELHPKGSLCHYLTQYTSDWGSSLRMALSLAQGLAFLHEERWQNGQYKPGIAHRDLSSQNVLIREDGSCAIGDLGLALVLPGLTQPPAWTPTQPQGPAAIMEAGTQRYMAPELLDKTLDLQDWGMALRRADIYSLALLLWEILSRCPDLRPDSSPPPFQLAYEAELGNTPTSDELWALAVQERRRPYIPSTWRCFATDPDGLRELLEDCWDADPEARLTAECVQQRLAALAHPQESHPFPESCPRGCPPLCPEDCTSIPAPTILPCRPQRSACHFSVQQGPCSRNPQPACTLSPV

[5] = target: T3, Epitope peptide GGGGNLTQDRAQVEMQGSR; assay: method not stated; Example 2, heading names cov434-AMHR-II cells and the epitope peptide
T3 peptide: GGGGNLTQDRAQVEMQGSR

[6] = target: T2, AMHRII receptor expressed on cells …; assay: cell-based or functional assay; remark: listed apart in the source
[7] = target: T2, AMHRII receptor expressed on cells …; assay: cell-based or functional assay; remark: listed apart in the source

| Binder | Ratio AB invention/chimeric 12G4 [1] | Ratio AB invention/humanized 12G4 [1] | other results |
| --- | --- | --- | --- |
| B1 | 1.9 | 4.3 |  |
| B2 | 1.6 | 3.5 |  |
| B3 | 1.2 | 2.6 |  |
| B4 | 1.5 | 3 |  |
| B5 |  |  | Kd [2]: 86 nM; koff [2]: 0.0043 s⁻¹; kon [2]: 50000 M⁻¹ s⁻¹; KD chimeric/KD mutated [3]: 2.5 |
| B6 |  |  | Kd [2]: 81 nM; koff [2]: 0.0012 s⁻¹; kon [2]: 15000 M⁻¹ s⁻¹; KD chimeric/KD mutated [3]: 2.6 |
| B7 |  |  | EC50 (ng/ml), ADCC on ASC1 cells [4]: 52.4 ng/mL; Emax (% of lysis), ADCC on ASC1 cells [4]: 52.4 % of lysis; Kd [5]: 5260 nM; koff [5]: 0.00962 s⁻¹; kon [5]: 1830 M⁻¹ s⁻¹; % of lysis of ASC1 cells (ADCC with NK cells, LDH release) at 0.001 ng/ml antibody [6]: 0%; % of lysis of ASC1 cells (ADCC with NK cells, LDH release) at 0.005 ng/ml antibody [6]: 18%; % of lysis of ASC1 cells (ADCC with NK cells, LDH release) at 0.05 ng/ml antibody [6]: 2%; % of lysis of ASC1 cells (ADCC with NK cells, LDH release) at 0.5 ng/ml antibody [6]: 0%; % of lysis of ASC1 cells (ADCC with NK cells, LDH release) at 5 ng/ml antibody [6]: 7%; % of lysis of ASC1 cells (ADCC with NK cells, LDH release) at 50 ng/ml antibody [6]: 24%; % of lysis of ASC1 cells (ADCC with NK cells, LDH release) at 500 ng/ml antibody [6]: 50%; % of lysis of ASC1 cells (ADCC with NK cells, LDH release) at 5000 ng/ml antibody [6]: 50% |
| B8 |  |  | Kd [2]: 25 nM; koff [2]: 0.001 s⁻¹; kon [2]: 41000 M⁻¹ s⁻¹; KD chimeric/KD mutated [3]: 8.5; EC50, ADCC on META 2815 cells [7]: 0.467 µg/mL |
| B9 | 0.8 | 2 |  |
| B10 | 0.8 | 1.7 |  |
| B11 | 1 | 2 |  |
| B12 | 1 | 2 |  |
| B13 | 0.8 | 1.6 |  |
| B14 | 1.1 | 2.2 |  |
| B15 | 0.9 | 1.8 |  |
| B16 | 1.3 | 1.5 |  |
| B17 | 1.1 | 2.6 |  |
| B18 | 0.8 | 1.7 |  |
| B19 | 1 | 2.1 |  |
